Test results from publication PMC6191436.

Molecular target: FLAG-cyclin B1 (UniProt P14635)
Test: co-IP; MCF7 cells transfected with Myc-BRCA1-Δ11 and FLAG-cyclin B1, synchronised (aphidicolin 0.3 μM 24 h, release 8 h, nocodazole 100 ng/mL 24 h, release 2 h), without or with irradiation (10 Gy); anti-FLAG antibody-conjugated agarose; Western blot with anti-Myc

Myc-BRCA1-Δ11, sequence (P38398 whole entry, stated change not applied): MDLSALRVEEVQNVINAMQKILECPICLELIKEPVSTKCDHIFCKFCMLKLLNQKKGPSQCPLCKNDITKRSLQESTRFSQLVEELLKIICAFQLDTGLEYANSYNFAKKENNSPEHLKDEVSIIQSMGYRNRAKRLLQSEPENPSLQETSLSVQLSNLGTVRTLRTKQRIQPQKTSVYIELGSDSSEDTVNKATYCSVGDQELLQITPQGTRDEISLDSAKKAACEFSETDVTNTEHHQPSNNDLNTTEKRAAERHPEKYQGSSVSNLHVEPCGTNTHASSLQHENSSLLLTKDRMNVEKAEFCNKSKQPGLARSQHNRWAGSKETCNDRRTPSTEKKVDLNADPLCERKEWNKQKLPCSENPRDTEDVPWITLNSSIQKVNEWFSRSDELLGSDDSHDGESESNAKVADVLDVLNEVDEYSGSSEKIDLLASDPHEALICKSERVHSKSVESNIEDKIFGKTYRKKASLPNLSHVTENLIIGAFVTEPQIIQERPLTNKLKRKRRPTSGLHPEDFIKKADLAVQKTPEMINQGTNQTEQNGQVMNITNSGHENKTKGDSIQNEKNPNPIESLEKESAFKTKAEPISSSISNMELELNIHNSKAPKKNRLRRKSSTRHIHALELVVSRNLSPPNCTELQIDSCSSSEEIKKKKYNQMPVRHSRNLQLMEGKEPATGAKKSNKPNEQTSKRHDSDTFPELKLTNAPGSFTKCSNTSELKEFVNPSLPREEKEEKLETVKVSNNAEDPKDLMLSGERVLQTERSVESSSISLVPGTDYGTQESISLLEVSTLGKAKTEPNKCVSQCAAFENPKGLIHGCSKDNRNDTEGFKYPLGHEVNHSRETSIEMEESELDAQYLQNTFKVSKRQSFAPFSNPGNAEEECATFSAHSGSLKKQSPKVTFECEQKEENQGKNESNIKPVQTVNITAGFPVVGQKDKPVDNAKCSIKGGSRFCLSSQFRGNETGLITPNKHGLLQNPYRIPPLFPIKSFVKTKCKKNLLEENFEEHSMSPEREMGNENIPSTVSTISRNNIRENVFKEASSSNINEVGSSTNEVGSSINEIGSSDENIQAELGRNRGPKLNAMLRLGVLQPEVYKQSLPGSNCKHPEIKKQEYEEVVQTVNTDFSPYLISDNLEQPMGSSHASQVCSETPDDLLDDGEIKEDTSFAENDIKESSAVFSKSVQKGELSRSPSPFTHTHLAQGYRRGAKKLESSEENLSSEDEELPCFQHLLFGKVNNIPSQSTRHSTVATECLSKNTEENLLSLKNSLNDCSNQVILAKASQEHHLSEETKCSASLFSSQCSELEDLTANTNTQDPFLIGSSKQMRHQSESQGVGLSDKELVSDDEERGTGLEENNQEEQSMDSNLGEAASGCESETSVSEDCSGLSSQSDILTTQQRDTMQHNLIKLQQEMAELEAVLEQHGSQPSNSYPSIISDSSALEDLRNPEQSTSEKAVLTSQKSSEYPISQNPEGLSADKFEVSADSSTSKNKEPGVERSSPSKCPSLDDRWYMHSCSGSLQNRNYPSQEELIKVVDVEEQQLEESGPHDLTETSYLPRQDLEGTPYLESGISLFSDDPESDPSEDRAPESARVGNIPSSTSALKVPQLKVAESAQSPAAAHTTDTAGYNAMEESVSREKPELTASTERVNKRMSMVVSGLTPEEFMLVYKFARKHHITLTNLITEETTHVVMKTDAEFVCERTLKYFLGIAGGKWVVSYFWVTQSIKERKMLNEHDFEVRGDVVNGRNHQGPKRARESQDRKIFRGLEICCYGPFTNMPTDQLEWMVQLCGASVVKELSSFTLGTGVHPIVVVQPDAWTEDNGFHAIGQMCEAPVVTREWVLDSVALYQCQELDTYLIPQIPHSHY
FLAG-cyclin B1, sequence (P14635 whole entry): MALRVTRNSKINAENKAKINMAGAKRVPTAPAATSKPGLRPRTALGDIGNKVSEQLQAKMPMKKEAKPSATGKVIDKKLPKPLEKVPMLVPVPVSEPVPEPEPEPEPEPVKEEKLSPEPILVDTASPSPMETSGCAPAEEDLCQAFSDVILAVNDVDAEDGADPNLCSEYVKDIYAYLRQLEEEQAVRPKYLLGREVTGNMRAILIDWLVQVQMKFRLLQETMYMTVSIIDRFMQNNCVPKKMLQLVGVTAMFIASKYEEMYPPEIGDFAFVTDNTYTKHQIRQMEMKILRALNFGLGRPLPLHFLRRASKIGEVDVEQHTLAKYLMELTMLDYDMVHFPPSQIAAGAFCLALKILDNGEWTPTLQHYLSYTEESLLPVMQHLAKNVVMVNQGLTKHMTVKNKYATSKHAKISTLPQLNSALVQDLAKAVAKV

- interaction upon irradiation relative to no irradiation (nocodazole-treated cells): 214%
Substance: Myc-BRCA1-Δ11 (from UniProt P38398-5 1-721) (natural protein)
